B1: [^125I]I-G3-H6 (DARPin G3-H6, directly radioiodinated with iodine-125) (designed binder)
chain: MDLGKKLLEAARAGQDDEVRILMANGADVNAKDEYGLTPLYLATAHGHLEIVEVLLKNGADVNAVDAIGFTPLHLAAFIGHLEIAEVLLKHGADVNAQDKFGKTAFDISIGNGNEDLAEILQKLNGS
modifications: iodine-125 on tyrosines (direct chloramine-T radioiodination, random attachment; number and position not controlled)
B2: [^125I]I-HPEM-G3-GGGC (DARPin G3-GGGC, site-specifically labelled with [^125I]I-iodo-[(4-hydroxyphenyl)ethyl]maleimide) (designed binder)
chain: DLGKKLLEAARAGQDDEVRILMANGADVNAKDEYGLTPLYLATAHGHLEIVEVLLKNGADVNAVDAIGFTPLHLAAFIGHLEIAEVLLKHGADVNAQDKFGKTAFDISIGNGNEDLAEILQKLNGGGGC
modifications: [^125I]I-HPEM ([^125I]iodo-[(4-hydroxyphenyl)ethyl]maleimide) on the C-terminal cysteine (maleimide-cysteine coupling)
B3: [^125I]I-G3-GGGC-IAA (DARPin G3-GGGC, directly radioiodinated, terminal cysteine capped with iodoacetamide) (designed binder)
chain: B2 chain
modifications: iodine-125 by direct iodination; terminal cysteine capped by alkylation with iodoacetamide (IAA)

Molecular target: human epidermal growth factor receptor 2 (HER2) (human (endogenous in SKOV3, BT474, …, UniProt P04626 23-1255))
Experiment: radioligand binding

KD1 (high affinity interaction, 1:2 interaction model) [pM] | KD2 (low affinity interaction, 1:2 interaction model) [nM] | Binder
163 | 3.9 | B1
99 | 3.5 | B2
146 | 1.5 | B3
